Results from US6428997B1, “Aminopeptidase derived from Bacillus licheniformis and process for preparation of natural type proteins” (LG Chemical Ltd., priority 1997, dated 2002).

Columns and labels:
[1] = tested on: leucyl oligopeptide of SEQ. ID. NO: 2; assay: Kinetic parameters of aminopeptidase, leucyl oligopeptide substrate; format: biochemical; conditions: 37° C.
From the text: (§1) In order to compare substrate specificity of aminopeptidase of this invention, 2 kinds of substrate were used. In detail, one was synthetic substrates of p-nitroanilide derivative and purchased from Sigma, USA and the other was oligopeptide such as methionyl oligopeptide of SEQ. ID. NO: 1 which have amino acid sequence similar to N-terminus of methionyl HGH and leucyl oligopeptide of SEQ. ID. NO: 2. The oligopeptides of this invention were synthesized.
(§2) In addition oligopeptide was also used as substrate to perform enzyme reaction by using substrate of known concentration and aminopeptidase in buffer containing 0.1M Tris-Cl, 0.1M NaCl to make 500 μl reaction volume. The enzyme reaction was performed at 37° C. and after 5 and 10 min 250 μl of reaction mixture was adopted and added 70% acetic acid to stop the reaction. The reaction mixture was analyzed by performing HPLC chromatography.
(§3) In reaction condition mentioned above, initial velocity of enzyme reaction was measured with varying the substrate concentration. Lineweaver-Burk plot was used to determine Km value and Maximum reaction velocity of aminopeptidase from Bacillus licheniformis. In addition kcat and kcat/Km was determined by using Km value and maximum reaction velocity described above.

[2] = tested on: methionyl oligopeptide of SEQ. ID. NO: 1; assay: Kinetic parameters of aminopeptidase, methionyl oligopeptide substrate; format: biochemical; conditions: 37° C.
From the text: as §1, §2, §3

B1: Aeromonas proteolytica aminopeptidase: Aeromonas proteolytica (Vibrio prozeolytica) aminopeptidase (Korean Patent Publication NO. 94-14804), comparison enzyme (protein)
chain: MPPITQQATVTAWLPQVDASQITGTISSLESFTNRFYTTTSGAQASDWIASEWQALSASLPNASVKQVSHSGYNQKSVVMTITGSEAPDEWIVIGGHLDSTIGSHTNEQSVAPGADDDASGIAAVTEVIRVLSENNFQPKRSIAFMAYAAEEVGLRGSQDLANQYKSEGKNVVSALQLDMTNYKGSAQDVVFITDYTDSNFTQYLTQLMDEYLPSLTYGFDTCGYACSDHASWHNAGYPAAMPFESKFNDYNPRIHTTQDTLANSDPTGSHAKKFTQLGLAYAIEMGSATGDTPTPGNQ
With B1 the Km [1] was 336 µM, the kcat [1] was 70.29 s⁻¹ and the Km [2] was 956 µM. It also gave a kcat [2] of 3.23 s⁻¹.
